What was measured:
[1] = molecular target: human CD98hc with incomplete glycosylation (cells treated with tunicamycin, thapsigargin or bortezomib) (human) (UniProt P08195); experiment: FACS on tunicamycin-treated THP-1 cells, MEM-108 at 2.5 µg/ml, PE anti-mouse IgG
[2] = molecular target: human CD98hc as expressed on normal blood cells, HUVEC cells and untreated U937 / THP-1 cells (human CD98hc having an N-glycan) (human) (UniProt P08195); experiment: FACS on untreated THP-1 cells, MEM-108 at 2.5 µg/ml, PE anti-mouse IgG
[3] = molecular target: human CD98hc with incomplete glycosylation (cells treated with tunicamycin, thapsigargin or bortezomib) (human) (UniProt P08195); experiment: FACS on tunicamycin-treated U937 cells, MEM-108 at 2.5 µg/ml, PE anti-mouse IgG
[4] = molecular target: human CD98hc as expressed on normal blood cells, HUVEC cells and untreated U937 / THP-1 cells (human CD98hc having an N-glycan) (human) (UniProt P08195); experiment: FACS on untreated U937 cells, MEM-108 at 2.5 µg/ml, PE anti-mouse IgG

MEM-108 antibody (anti-human CD98 antibody, Biolegend)
MFI (corrected value obtained by dividing with an isotype control) (MFI / MFI of isotype control) [1]: 29.1 | MFI (corrected value obtained by dividing with an isotype control) (MFI / MFI of isotype control) [2]: 29.4 | MFI (corrected value obtained by dividing with an isotype control) (MFI / MFI of isotype control) [3]: 8.3 | MFI (corrected value obtained by dividing with an isotype control) (MFI / MFI of isotype control) [4]: 11.8
